Source: patent US10654917B2, “Antibody molecules and peptide delivery systems for use in alzheimer's disease and related disorders” (TECHNOPHAGE, INVESTIGAÇĀO E DESENVOLVIMENTO EM …, priority 2015, dated 2020)
Like-named read-outs stand apart in the source and are kept apart here.

How the values were obtained:
[1] = Stability in blood and urine after injection, HPLC; assay type: in vivo, mice; details: 5 and 60 minutes following injection
Description: Finally, stability of the peptides was determined. Urine and blood were taken from the animals after death, filtered, and analyzed by RT-HPLC. HPLC analysis was conducted to assess the stability of pepH1 and pepH3 peptides in blood and urine, 5 and 60 minutes post-administration, compared to the respective original preparations.
FIGS. 28A-28D show the profile of pepH1 and pepH3 each in its original preparation, prior to injection into the animals, and then after 5 and 60 minutes following injection in the blood and urine.

[2] = Biodistribution of technetium-labelled peptides; assay type: in vivo, CD1 mice
Description: To evaluate the capacity to cross the BBB in vivo, the selected peptides, pepH1 and pepH3, were analyzed for biodistribution in CD1 mice. The peptides were labelled with technetium at a final concentration of 8.5×10^−5 M and diluted in PBS. CD1 mice were injected (iv injection, tail vein). The mice were sacrificed by cervical dislocation after 5 and 60 minutes of incubation. The tissues of interest were dissected and washed to remove excess blood, weighed, and measured for radioactivity. Technetium radioactivity of the different peptides was measured for different organs.
Initial results are presented in Table 11, where “% I.A. refers to the “% injected activity”, that is, the amount of radioactivity measured in a given organ compared to the total originally injected.
The biodistribution studies were repeated, using higher doses of each peptide, specifically, a one hundred fold increase, as well as using PepH2 as a negative control, and allowing incubation for 2 minutes and 60 minutes. Tissue biodistribution profile in percentage of injected radiopeptide activity per gram of tissue/organ was measured and results are presented in Table 12.

[3] = Features of peptides: isoelectric point, charge; assay type: physicochemical; details: original peptide
From the text: (§1) Table 7 lists each peptide's name, isoelectric point (PI), charge (number of positive residues), calculated mass (in Da), and ion found; as well as the name, calculated mass, and found ion for the corresponding conjugate; and also retention times in HPLC and the partition coefficient (log Po/w). These values allowed the determination of the hydrophilic nature of peptides, where pepH1 and pepH4 were identified as the most hydrophilic peptides.

bEnd3 cells = test: Uptake test: cellular interaction (acid wash) and internalization (lysate); assay type: cell-based
Description: In addition to testing models of BBB, an uptake test was performed to determine the internalizing ability of the candidate peptides. BEnd3 cells were cultured in 24 well plates. At each time point, the medium containing the peptide, which had not interacted with the cells, was collected. In the next step, the cells were washed with an acidic buffer that releases peptides more strongly bound to the cell membrane (sample acid wash). Finally, the cells were lysed to release internalized peptides and to quantify the activity inside the cells. Results are showing in FIGS. 23A-23E.
FIGS. 23A-23E show percent activity of the radioisotope technetium-labelled peptides in the media, wash buffer (acid wash) and lysate, after 15 minutes, 5 hours, and 24 hours of incubation with bEnd3 cells; and values were obtained from two independent assays. […] PepM′, as well as showing high transmigration (about 50%), also appeared to become internalized and accumulated within the cells (about 13% of radioactivity in the lysate).
(§2) Table 9 summarizes results regarding uptake (internalization) and cellular interaction, as well as transmigration across an in vitro model for BBB, for peptides labelled with technetium and gallium, after 15 minutes, 5 hours, and 24-hours of incubation, based on percent recovery of radiopeptide. The Table lists the peptides, providing each peptide's name, % BBB transmigration, % cellular interaction, and % internalized, each after […], 5 hours, and 24 hours of incubation.

[4] = test system: in vitro model of the BBB (bEnd3 cells); test: Transmigration of radiolabelled peptides across in vitro BBB model; assay type: in vitro ADME
Description: Using the same in vitro model of the BBB described above, peptides labelled with technetium and gallium were tested for the ability to cross endothelial barrier. For each peptide, bEnd3 cells cultured on “tissue culture inserts” were incubated with 5 ρCimL^−1-labelled peptide for different incubation times: 15 min, 5 h and 24 h. As a control, the model without cells was used (Control no cells) or (Filters) and compared to models with cells (BBB) or (Cells).
FIGS. 21A-21F show the percent activity of the radioisotope technetium-labelled peptides at the apex and base after 5 hours of incubation with the in vitro model described above, using the BBB-model or no cells (as a control); and values were obtained from two independent assays. […] Moreover, the results indicated promising candidates. Specifically, for each of pepH1 and pepH3, there was an overpass of 50% in the control, compared with only 20% in the presence of a cell barrier. The translocation of pepH2 was not observed in either the control nor in the BBB model.
Results for the incubations of 15 minutes, 5 hours, and 24 hours are shown together in FIGS. 22A-22F. That is, FIGS. 22A-22F show the percent activity of the radioisotope technetium-labelled peptides at the apex and base after 15 minutes, 5 hours, and 24 hours of incubation with the in vitro model described above, using the BBB-model or no cells (as a control); and values were obtained from two independent assays. Differences again were observed, confirming the integrity of the barrier, as well as identifying peptides that crossed the barrier. […] PepR′ thus was excluded from further tests.
as §2

[5] = Partition coefficient (log Po/w) of radiopeptides; assay type: physicochemical
From the text: as §1

With “VQQLTKRFSL (Dengue virus 2; /note=“#PepH1”)” the “stability in blood and urine” value [1] was “stable in the blood and urine”, the excreted ([2]; 140 μg (pepH1, pepH3) or 80 μg (pepH2), after 60 min) was 32.7% and the brain uptake ([2]; after 2 min) was “rapid brain uptake”. For the same compound, the brain washout ([2]; mouse, in vivo) was “rapid brain washout”, the “Charge (number of positive residues)” value [3] was 2 and the “PI (isoelectric point)” value [3] was 11. For the same compound, the “where the radiopeptide is found in the uptake test (media, acid wash, lysate)” value (bEnd3 cells; 99mTc) was “mainly remained in the incubation medium”, the Cellular interaction (bEnd3 cells; 99mTc, 0.25 hours) was 0.63 ± 0.1% and the Internalization (bEnd3 cells; 99mTc, 0.25 hours) was 0.16 ± 0.0%. It also gave a Cellular interaction (bEnd3 cells; 99mTc, 5 hours) of 0.30 ± 0.0%, an Internalization (bEnd3 cells; 99mTc, 5 hours) of 0.10 ± 0.0% and a Cellular interaction (bEnd3 cells; 99mTc, 24 hours) of 0.38 ± 0.1%. It also gave an Internalization (bEnd3 cells; 99mTc, 24 hours) of 0.12 ± 0.0%, a Cellular interaction (bEnd3 cells; GaCl3, 0.25 hours) of 0.25 ± 0.0% and an Internalization (bEnd3 cells; GaCl3, 0.25 hours) of 0.00 ± 0.0%. The Cellular interaction (bEnd3 cells; GaCl3, 5 hours) was 0.80 ± 0.3%, the Internalization (bEnd3 cells; GaCl3, 5 hours) was 0.10 ± 0.0% and the Cellular interaction (bEnd3 cells; GaCl3, 24 hours) was 0.62 ± 0.0%. For the same compound, the Internalization (bEnd3 cells; GaCl3, 24 hours) was 0.16 ± 0.0%, the BBB transmigration ([4]; 99mTc, 0.25 hours) was 3.75 ± 0.5% and the “overpass in the control (no cells)” value ([4]; 99mTc, 5 h, no cells) was 50%. It also gave a BBB transmigration ([4]; 99mTc, 5 hours) of 24.3 ± 0.4%, a BBB transmigration ([4]; 99mTc, 5 hours, listed as pepH1) of 20% and a BBB transmigration ([4]; 99mTc, 24 hours) of 73.83 ± 9.4%. The BBB transmigration ([4]; 99mTc, 24 hours, listed as pepH1) was “about 70%”, the “BBB transmigration / translocation (summary of Table 9)” value ([4]; 24 h, both types of markings) was “about 70%” and the BBB transmigration ([4]; GaCl3, 0.25 hours) was 1.13 ± 0.2%. It also gave a BBB transmigration ([4]; GaCl3, 5 hours) of 21.56 ± 0.4% and a BBB transmigration ([4]; GaCl3, 24 hours) of 71.47 ± 3.7%.
For `CSCC[C@H](NC(=O)[C@H](Cc1ccccc1)NC(=O)[C@H](CC(C)C)NC(=O)[C@H](CCCCN)NC(=O)CCCN(CCN)CCn1nc(C)c(CC(=O)O)c1C)C(=O)N[C@@H](C)C(=O)N[C@@H](CC(C)C)C(=O)N[C@H](C(=O)N[C@@H](C)C(=O)N[C@@H](Cc1ccccc1)C(=O)N[C@@H](CC(C)C)C(=O)N[C@@H](CCCNC(=N)N)C(=O)N[C@@H](Cc1ccccc1)C(=O)N[C@@H](CC(C)C)C(=O)N[C@H](C(=O)O)[C@@H](C)O)C(C)C` [^99mTc(CO)3-Pz^1-pepH2, metal not drawn], the “log Po/w of radiopeptides” value [5] was 0.65 ± 0.13, the tissue uptake at 2 min ([2]; CD1, blood, iv, 80 ug/mouse, total radioactivity, 80 μg/mouse, read-out: injected activity in Blood) was 8.9 ± 0.6 %ID/g and the tissue uptake at 1 h ([2]; CD1, blood, iv, 80 ug/mouse, total radioactivity, 80 μg/mouse, 1 hour, read-out: injected activity in Blood) was 3.8 ± 0.2 %ID/g. It also gave a tissue uptake at 2 min ([2]; CD1, bone, iv, 80 ug/mouse, total radioactivity, 80 μg/mouse, read-out: injected activity in Bone) of 1.6 ± 0.1 %ID/g, a tissue uptake at 1 h ([2]; CD1, bone, iv, 80 ug/mouse, total radioactivity, 80 μg/mouse, 1 hour, read-out: injected activity in Bone) of 1.4 ± 0.1 %ID/g and a tissue uptake at 2 min ([2]; CD1, brain, iv, 80 ug/mouse, total radioactivity, 80 μg/mouse, read-out: injected activity in Brain) of 0.37 ± 0.04 %ID/g. The tissue uptake at 1 h ([2]; CD1, brain, iv, 80 ug/mouse, total radioactivity, 80 μg/mouse, 1 hour, read-out: injected activity in Brain) was 0.2 ± 0.1 %ID/g, the tissue uptake at 2 min ([2]; CD1, heart, iv, 80 ug/mouse, total radioactivity, 80 μg/mouse, read-out: injected activity in Heart) was 3.45 ± 0.02 %ID/g and the tissue uptake at 1 h ([2]; CD1, heart, iv, 80 ug/mouse, total radioactivity, 80 μg/mouse, 1 hour, read-out: injected activity in Heart) was 1.2 ± 0.2 %ID/g. For the same compound, the dose excreted at 1 h ([2]; CD1, in vivo, iv, 80 ug/mouse, total radioactivity, 80 μg/mouse, 1 hour, read-out: Excretion) was 12.7 ± 4.2%, the tissue uptake at 2 min ([2]; CD1, intestine, iv, 80 ug/mouse, total radioactivity, 80 μg/mouse, read-out: injected activity in Intestine) was 0.5 ± 0.1 %ID/g and the tissue uptake at 1 h ([2]; CD1, intestine, iv, 80 ug/mouse, total radioactivity, 80 μg/mouse, 1 hour, read-out: injected activity in Intestine) was 1.64 ± 0.07 %ID/g. It also gave a tissue uptake at 2 min ([2]; CD1, kidney, iv, 80 ug/mouse, total radioactivity, 80 μg/mouse, read-out: injected activity in Kidney) of 5 ± 1.5 %ID/g, a tissue uptake at 1 h ([2]; CD1, kidney, iv, 80 ug/mouse, total radioactivity, 80 μg/mouse, 1 hour, read-out: injected activity in Kidney) of 3.3 ± 0.8 %ID/g and a tissue uptake at 2 min ([2]; CD1, liver, iv, 80 ug/mouse, total radioactivity, 80 μg/mouse, read-out: injected activity in Liver) of 16.7 ± 1.1 %ID/g. It also gave a tissue uptake at 1 h ([2]; CD1, liver, iv, 80 ug/mouse, total radioactivity, 80 μg/mouse, 1 hour, read-out: injected activity in Liver) of 21.7 ± 0.9 %ID/g, a tissue uptake at 2 min ([2]; CD1, lung, iv, 80 ug/mouse, total radioactivity, 80 μg/mouse, read-out: injected activity in Lung) of 126 ± 20 %ID/g and a tissue uptake at 1 h ([2]; CD1, lung, iv, 80 ug/mouse, total radioactivity, 80 μg/mouse, 1 hour, read-out: injected activity in Lung) of 51.4 ± 4.4 %ID/g. For the same compound, the tissue uptake at 2 min ([2]; CD1, muscle, iv, 80 ug/mouse, total radioactivity, 80 μg/mouse, read-out: injected activity in Muscle) was 0.61 ± 0.09 %ID/g, the tissue uptake at 1 h ([2]; CD1, muscle, iv, 80 ug/mouse, total radioactivity, 80 μg/mouse, 1 hour, read-out: injected activity in Muscle) was 0.43 ± 0.03 %ID/g and the tissue uptake at 2 min ([2]; CD1, spleen, iv, 80 ug/mouse, total radioactivity, 80 μg/mouse, read-out: injected activity in Spleen) was 13.6 ± 0.3 %ID/g. The tissue uptake at 1 h ([2]; CD1, spleen, iv, 80 ug/mouse, total radioactivity, 80 μg/mouse, 1 hour, read-out: injected activity in Spleen) was 10.6 ± 0.4 %ID/g, the tissue uptake at 2 min ([2]; CD1, stomach, iv, 80 ug/mouse, total radioactivity, 80 μg/mouse, read-out: injected activity in Stomach) was 2 ± 0.6 %ID/g and the tissue uptake at 1 h ([2]; CD1, stomach, iv, 80 ug/mouse, total radioactivity, 80 μg/mouse, 1 hour, read-out: injected activity in Stomach) was 9.4 ± 0.2 %ID/g.
